Measurements as given in patent US20050042220A1 (GENETICS INSTITUTE, published 2005).

T1: IL-22R-Fc/IL-10R2-Fc heterodimer from co-expressing CHO cells (human, UniProt Q8N6P7 16-228; Q08334 20-220)
T1 construct: extracellular domain; also called IL-22R/IL-10R2-Fc heterodimer; IL-22R-Fc/IL-10R2-Fc complex; not shown: human IgG1 Fc
T1 sequence 1: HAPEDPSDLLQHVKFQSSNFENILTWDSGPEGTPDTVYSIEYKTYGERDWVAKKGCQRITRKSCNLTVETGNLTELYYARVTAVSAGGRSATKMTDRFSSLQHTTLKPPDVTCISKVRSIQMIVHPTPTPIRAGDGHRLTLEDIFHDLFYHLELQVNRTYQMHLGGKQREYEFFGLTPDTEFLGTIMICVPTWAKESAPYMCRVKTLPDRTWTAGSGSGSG
T1 sequence 2: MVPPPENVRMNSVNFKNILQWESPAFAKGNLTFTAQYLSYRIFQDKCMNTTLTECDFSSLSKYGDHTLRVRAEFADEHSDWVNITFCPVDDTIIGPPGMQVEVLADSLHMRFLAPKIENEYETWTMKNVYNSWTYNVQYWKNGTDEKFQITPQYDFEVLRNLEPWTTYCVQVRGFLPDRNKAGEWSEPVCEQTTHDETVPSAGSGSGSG

B1: human IL-22 binding protein-Fc fusion (Fc fusion)
chain: TQSTHESLKPQRVQFQSRNFHNILQWQPGRALTGNSSVYFVQYKIYGQRQWKNKEDCWGTQELSCDLTSETSDIQEPYYGRVRAASAGSYSEWSMTPRFTPWWETKIDPPVMNITQVNGSLLVILHAPNLPYRYQKEKNVSIEDYYELLYRVFIINNSLEKEQKVYEGAHRAVEIEALTPHSSYCVVAEIYQPMLDRRSQRSEERCVEIPAGSGSGSG
notes: Fc fusion homodimer, used as CHO conditioned medium; also called IL-22BP-Fc; huIL22BP-huFc; not shown: human IgG1 Fc
B2: biotinylated N terminal His/Flag tagged human IL-22 (ligand)
chain: GSGHHHHHHGSGDYKDDDDKAPISSHCRLDKSNFQQPYITNRTFMLAKEASLADNNTDVRLIGEKLFHGVSMSERCYLMKQVLNFTLEEVLFPQSDRFQPYMQEVVPFLARLSNRLSTCHIEGDDLHIQRNVQKLKDTVKKLGESGEIKAIGELDLLFMSLRNACI
modifications: biotinylated with EZ-Link Sulfo-NHS-Biotin (sites not given)
notes: also called bio-IL-22; biotinylated IL-22
B3: human IL-22R extracellular domain-Fc fusion homodimer (Fc fusion)
chain: T1 sequence 1
notes: extracellular domain; Used as CHO conditioned medium, not purified; also called IL-22R-Fc; IL-22RECD-Fc; not shown: human IgG1 Fc

How the values were obtained:
[1] = biological target: B2; test: blocking ELISA: IL-22BP-Fc pre-incubated 30 min with bio-IL-22 (5 ng/ml), added to 50 ng/ml total Fc of co-expressed IL-22R-Fc/IL-10R2-Fc captured on anti-human IgG wells; bound bio-IL-22 read with streptavidin-HRP, A450; blocked partner IL-22R-Fc/IL-10R2-Fc
Method: (§1) After a final set of washes, 100 μl of TMB Microwell peroxidase substrate (BioFX, Owings Mills, Md.) was added for 20 minutes and the reaction stopped with 100 μl 2N H₂SO₄. Colorimetric detection of the peroxidase product was done at 450 nm in a Molecular Devices (Sunnyvale, Calif.) microplate reader.
(§2) For certain ELISA assays of the above format where both the receptor Fc and bio-IL-22 are at a fixed concentration, IL-10R2-Fc was added at various concentrations either before or with bio-IL-22 (FIG. 9A) or after the bio-IL-22 (FIG. 9B). For other ELISA assays of the above format where the indicated receptor Fc and bio-IL-22 are also at a fixed concentration, antibodies (FIG. 10B-10C., 11C) or IL-22BP (FIG. 11A-11B) were added at various concentrations after a pre-incubation with the bio-IL-22 for 30 minutes. For ELISA assays in which the recruitment of IL-10R2-Fc to the IL-22/IL-22R complex was detected directly (data not shown, experimental design of FIG. 9A), non-biotinylated IL-22 was added to the ELISA and either polyclonal goat anti-hIL-10R2 or a mouse monoclonal anti-hIL-10R2 (R&D Systems, Inc, Minneapolis, Minn.) was used as detector.
(§3) IL-22 binding protein (IL-22BP) is a soluble ‘receptor’ for IL-22 that has low homology to the extracellular domain of IL-22R. […]

[2] = biological target: B2; test: competition ELISA (printed as ND50): IL-22BP-Fc pre-incubated with bio-IL-22 5 ng/ml, binding to captured IL-22R/IL-10R2-Fc heterodimer (FIG. 11B by its legend); IL-22R/IL-10R2-Fc heterodimer immobilized (FIG. 11B; printed as FIG. 6B)
Method: Colorimetric detection of the peroxidase product was done at 450 nm in a Molecular Devices (Sunnyvale, Calif.) microplate reader.
as §2
IL-22 binding protein (IL-22BP) is a soluble ‘receptor’ for IL-22 that has low homology to the extracellular domain of IL-22R. It neutralizes signal transduction mediated by IL-22 (Dumoutier, L. et al. (2001) J Immunol 166(12):7090-5; Kotenko, S. V. et al. (2001) J Immunol 166(12):7096-103; Xu, W. et al. (2001) Proc Natl Acad Sci USA 98(17):9511-6; Wei C-C et al. (2003) Genes & Immunity 4:204-21117). […]

[3] = biological target: B2; test: competition ELISA (printed as ND50): IL-22BP-Fc pre-incubated with bio-IL-22 30 ng/ml, binding to captured IL-22R-Fc; IL-22R-Fc homodimer immobilized (FIG. 11A)
Method: as §1, §2, §3

[4] = biological target: B2; test: blocking ELISA: IL-22BP-Fc pre-incubated 30 min with bio-IL-22 (30 ng/ml), added to 50 ng/ml IL-22R-Fc captured on anti-human IgG wells; bound bio-IL-22 read with streptavidin-HRP, A450; blocked partner IL-22R-Fc
Method: as §1, §2, §3

[5] = biological target: T1, IL-22R-Fc/IL-10R2-Fc heterodimer from …; test: ELISA, 50 ng/ml total Fc from co-expressing CHO captured on anti-human IgG, bio-IL-22 titrated (FIG. 8A)
Method: The results shown in FIGS. 6A, 8A-8B, 9A-9B, 10B-10C and 11A-11C were obtained from ELISA assays where receptor Fc from CHO CM were first immobilized via an anti-hIgG coat. Flat bottom, 96-well ELISA plates (Costar, Cambridge, Mass.) were coated overnight at 4° C. with 100 μl goat anti-human IgG antibody (Southern Biotech Associates, Inc., Birmingham, Ala.) at 1 μg/ml in 0.1 M sodium carbonate buffer (pH 9.6). The plates were washed twice with 200 pi phosphate-buffered saline containing 0.05% Tween 20 (PBS-T), blocked with 100 μl 1% BSA (Sigma, St. Louis, Mo.) in PBS-T for 1 hour and washed three times. Following by one hour sequential incubations (100 ul), each separated by three washes, were then employed: a given receptor fusion(s) at a fixed concentration or serially diluted, biotinylated IL-22 (bio-IL-22) at a fixed concentration or serially diluted, and then 1/10,000 dilution of streptavidin-horse radish peroxidase (HRP) (Southern Biotech Associates, Inc., Birmingham, Ala.). […] Colorimetric detection of the peroxidase product was done at 450 nm in a Molecular Devices (Sunnyvale, Calif.) microplate reader.
IL-22 binding to the ECD of IL-22R and IL-10R2 secreted as Fc heterodimer was then evaluated. […] The ability of cytokine to bind was then evaluated using various concentrations of bio-IL-22 as the detector (FIG. 8A). […]

[6] = biological target: B3; test: ELISA, IL-22R-Fc captured on anti-human IgG, bio-IL-22 titrated (FIG. 6A)
Method: as §1
FIG. 6B depicts the results form an ELISA assay performed in the opposite format, whereby 100 µl of 1 µg/ml biotinylated IL-22 was added to Reacti-Bind 96 well streptavidin-coated plates (Pierce, Rockford, Ill.) for one hour. After washing, Fc fusion receptor was added at various concentrations to the plates for one hour, washed and then detected with goat anti-human IgG-HRP. In FIG. 6A, fifty ng/ml of total Fc in conditioned media (CM) from CHO cells expressing either IL-22R-Fc (▪) or IL-10R2-Fc (O) was captured onto anti-human IgG coated wells. Biotinylated IL-22 (bio-IL-22) at various concentrations was then added to the wells. Bound bio-IL-22 was subsequently detected using streptavidin-HRP. In FIG. 6B, bio-IL-22 (1 μg/ml) was captured onto streptavidin plates. […] Bound receptor Fc was subsequently detected using goat anti-human IgG-HRP.
IL-22 binding to the extracellular domain (ECD) of IL-22R and IL-10R2 was evaluated using two ELISA formats. […] Biotinylated IL-22 was then added and detected with streptavidin-HRP. […] Receptor-Fc were then added and detected with HRP-conjugated, anti-hIgG.

[7] = biological target: B2; test: ELISA, bio-IL-22 on streptavidin plates, IL-22R-Fc titrated (FIG. 6B)
Method: FIG. 6B depicts the results form an ELISA assay performed in the opposite format, whereby 100 µl of 1 µg/ml biotinylated IL-22 was added to Reacti-Bind 96 well streptavidin-coated plates (Pierce, Rockford, Ill.) for one hour. After washing, Fc fusion receptor was added at various concentrations to the plates for one hour, washed and then detected with goat anti-human IgG-HRP. In FIG. 6A, fifty ng/ml of total Fc in conditioned media (CM) from CHO cells expressing either IL-22R-Fc (▪) or IL-10R2-Fc (O) was captured onto anti-human IgG coated wells. Biotinylated IL-22 (bio-IL-22) at various concentrations was then added to the wells. Bound bio-IL-22 was subsequently detected using streptavidin-HRP. In FIG. 6B, bio-IL-22 (1 μg/ml) was captured onto streptavidin plates. Various concentrations of either IL-22R-Fc (▪) or IL-10R2-Fc (O) in diluted CHO. CM was then added to the wells. Bound receptor Fc was subsequently detected using goat anti-human IgG-HRP.
IL-22 binding to the extracellular domain (ECD) of IL-22R and IL-10R2 was evaluated using two ELISA formats. In the first version, receptor-Fc fusion proteins were immobilized via the Fc domain on anti-human IgG coated plates. Biotinylated IL-22 was then added and detected with streptavidin-HRP. […] Receptor-Fc were then added and detected with HRP-conjugated, anti-hIgG.

For B1, the “IC50 (read off the curve)” value [1] was ~0.2 nM, the IC50 [2] was 2 nM and the IC50 [3] was 4 nM. For the same binder, the “IC50 (read off the curve)” value [4] was ~0.5 nM.

In the case of B2, the “fold less bio-IL-22 needed for a comparable signal than with immobilized IL-22R-Fc homodimer” value [5] is reported as 8 fold and the EC50 [6] is reported as 0.02 µg/mL.

B3 was tested, and the EC50 [7] was 0.006 µg/mL.
